The values that follow come from a protein production outcome set (Wang et al. 2014).

The nature of this series: label from the status in PepcDB records.
“MKTAIVTDSASYLSAADVEKYHIHVVPITVIFGHQTYLENVEITSKEFYERMRTAPELPTTTQITLGQMQTTYDQLAKAGYDAVISIHLSSGITSFITNLESYLPNVTNIKVYPFDSLITAGGEAYMVLLAAKLVTEGYSPEQVIAQLKKIRETTGVYFVVDNLSHLVRTGRLSNASGLVGNLLRIKPVLTFQDGKIVAIQKERTMRRAYAAIKAKLAAEIAAVDYPLRVTIENGNNPKLQAEWTADLKASFPDLTIDEGEIGPVVGVHVGEGVMGLIWARDWEKWTI”: the protein production entry is on record as “failed”.

With “MAAKKDYYAILGVPRNATQEEIKRAYKRLARQYHPDVNKSPEAEEKFKEINEAYAVLSDPEKRRIYDTYGTTEAPPPPPPGGYDFSGFDVEDFSEFFQELFGPGLFGGFGRRSRKGRDLRAELPLTLEEAFHGGERVVEVAGRRVSVRIPPGVREGSVIRVPGMGGQGNPPGDLLLVVRLLPHPVFRLEGQDLYATLDVPAPIAVVGGKVRAMTLEGPVEVTIPPRTQAGRKLRLRGKGFPGPAGRGDLYLEVRITIPERLTPEEEALWKKLAEAYYARA”, the protein production entry is recorded as “failed”.

With “SHHKVSVSPVVHVRGLCESVVEADLVEALEKFGTICYVMMMPFKRQALVEFENIDSAKECVTFAADVPVYIAGQQAFFNYSTSKRITRPGN”, the protein production result is on record as “not failed”.

Turning to “MAVTISGVRKHSPAYRHGIQAGERLLTLNGNEIMDVLDYRFYQLNTALVLELENNRGERRTVSLKKPEYEEIGLEFETYLMDRQHSCKNKCVFCFIDQLPKGLRKSLYFKDDDSRLSFLFGNYVTLTNLTEHEISRIIKMHISPMNISVHTTNPELRVKMMKNPRAGEALSIIRRFAQAGIKINCQIVLCPGYNDGEELKRTLSDLETMCPQVQAVAVVPVGITRYRQNLPEMRSFTRETAGEAIDLIESFGEKCLQKYGTRVAYPGDEFYLKAERPLPPAGFYEDFSMLENGVGLLPLLMDEFYSALEEAGETGGRKREITIATGMAPREYIRGFLDDAIKKFPHISGRVTPIVNRFFGETITVSGLVTGTDLIEQLSSVDLGDELLIPACMLRREGDLFLDDVSLQDVEAALKVPVRPVPNDGYAFLDAILGSESLEHHHHHH”, the protein production entry is given as “failed”.

For the sequence “MTDAEYGLPRRSLLAGAAGAGAAFALPAGAAQAAPAASPQAGAERRHPRNWPDPEPYGAADTRADLWPREDNSFVLPLELRPRDQERGTVWMRDTYVNCFVVDGRPLYVATGTTRVPGLEAAGPWNDGIFVWLAPSLDGPWRLADTTGIRPGAERGKVWSPEFAGENRPGRTVVAPWQEYWHDEQFGKRGQAWAPELHYFRDTWYLVACMGDHSRKVGSFMLVSEGGVEGPYRLVEGNLDKPFGDSFIGGPKFIEPGAYHHIDGGLFSEGDDAWLVLHNDLYAKFRDDMEDIVTTTDLPRFRQTPYSPEPYLEGAYVFKYRGKYHLVHAAWDRTSVNADGTVRQAYDVPAAGRVQYQYDAIVAVADRFEGPYSKRYTAGVGAGHNNFFVDHRGGLWATYFLNPAAGYWSGASRVAESAVPGVVRLEWTGPAGGRLYVKRGSGGPGSGH”, the protein production entry is recorded as “failed”.

In the case of “MAGESGAPIRCRLLPIDMDAALGPPEQMAELEEDLTPMMAQYYELCRQYDDALVLFQVGDFYEAFCAAAKRVARLCEITLTQREDSTGEYPMAGIPIDNAESYVETLLDAGYRVAIADQVEDPDEVSGVVERAVTRIVTPGTLTESELLGGADNNYVAALTAGERYGLALLDISTGDCYATSVGSESAVADELSRFGPAEAIVGPDVDVDRDAVFGPACLVTRYDADAFAQDRAEDRVGQYFGPPERLLAGGAEIRACGGLLAYAEYTRGSSGAVGPDGEPVDPDVDPAGTLDYLNHLTRYDPREYMLLDAVAVESLELFKRRSVRGHENRTLVDTVDETACALGRRKLTDWLRRPLLDADRIEARHGAVAELQRDPATREELSALLAEVYDLERLISRVSRGRANARDLRSLAATLSVVPDIRDHLADADARLLADLHATLDPLAETREEIEAAIRPDPPQQVTEGGVIREGYDEELDRLRSTEQSGKEWIDELEASERERTGIDSLKVGHTSVHGYYIEVTNANLDAVPEDYQRRQTLKNSERYYTPALKEREDEILRAESAADDLEYDLFCAVRDEVADEAERVQALADRLARLDVLVSFAEVAAQYDYCRPTVGSDGIDVTAGRHPVVERTEDAFIPNDTHLGSGPVPASRDGSDDGVTADDIQPFLAVVTGPNMSGKSTYMRQVALICLLAQSGSFVPAKAADLPILDRVFTRVGASDDIAGGRSTFMIEMTELATILDAATENSLVLLDEVGRGTSTADGLAIARAVTEYLHDEVGAYTLFATHHHDLTAVAAALSGATNRHFETSREDGDVRFDHELAPGPAAASYGVEVASMAGVPDSVVERSRDLLADAETADTGVEATRETEVASEPRPGTRADSETDSTATETTGPTENGAASAPAGEATSDDHAQEVFQTNGAAAEDELPESVAQQLASLDVATMTPIEAMNALADLQDRIE”, the protein production result was “failed”.

Regarding “YESIDLKAVLFDMDGVLFDSMPNHAESWHKIMKRFGFGLSREEAYMHEGRTGASTINIVSRRERGHDATEEEIKAIYQAKTEEFNKCPKAERMPGALEVLTKIKSEGLTPMVVTGSGQTSLLDRLNHNFPGIFQANLMVTAFDVKYGKPNPEPYLMALKKGGFKPNEALVIENAPLGVQAGVAAGIFTIAVNTGPLHDNVLLNEGANLLFHSMPDFNKNWETLQSALKQ”, the protein production entry is “failed”.

In the case of “MKRTHLASFSNRDKTQEEEGEDGNGDNRVIMNHYKNYEAGLIPWPPKNYTCSFCRREFRSAQALGGHMNVHRRDRAKLRQIPSWLFEPHHHTPIANPNPNFSSSSSSSTTTAHLEPSLTNQRSKTTPFPSARFDLLDSTTSYGGLMMDREKNKSNVCSREIKKSAIDACHSVRCEISRGDLMNKKDDQVMGLELGMSLRNPNQVLDLELRLGYL”, the protein production entry is given as “not failed”.

For “MNSIEKELDCGRSVTDQQKIEEVTRQITEHGNELRRRYPVLNYQNALGASAMAVSVTVMVVTGVLYVKGIMPAWLCILVNALSTSIIHELEHDLIHRLYFRKQPLAHNFMMLLCWLTRPGMPSPWLRRGLHFHHHKESGTATDVEAWITTSGNPWGILRLLKLMDGFLFGFVNAVCAPGWRQKMKLLARIIRLNTPFGLLYWGSWYVFLGYHLSTWLGGLAGVPPPSSPLMLQVMNMIDCVVVIVVAPNMIRQFCLYFISSNMHYYGDVAPRNALQQTQVMNHWLLWPFQLFCFNFGSTHSIHHFVVKDPFYLRQMTAPYAHEVMAKAGVRFNDFGTYKRANRFKLDTVQFQSRG”, the protein production result is recorded as “failed”.

In the case of “MRVQANSRSMGVLEDKARARTFYKYLSKVYDRVNTFIWTEEMRAEALSMLDIDAEDRVLDVGCGTGFGTEGLLKHTEHVYGLDQSPHQLTKAWEKFGKHDPVAFHFGDAERLPFKPDSFDVVWSSGSIEYWPHPVQGLRELRRVAKPGSQVLVVGPDYPASTVFRKLADAIMLFYDEDEADRMFREAGYEEIQHRVLRKEPNSPPAIVTVARAPAADD”, the protein production entry is “failed”.

Consider “MPPAPVFLLLAAGASRRMRGADKLMEPVAGEPLLRLQARRGIAAGLAVLVTLPPDRPERWAALEGLAVQRLPVPDAAEGLAASIRAGVAAAPPDAAVLLLLADLPEIEATDLAQMAALHREAPKALLRATTADGRPGHPILFPADLRPELQALKGDQGARRILERAAGRLRLVPLAGTRAVTDLDTPEDWALWRARTGHLEHHHHHH”, for which the protein production entry is listed as “failed”.

Take “MLTYYLKTEIQLLFRKKVYLVLSILVPLALYLLFTSILDLPEEAKKPFYKEYMYSMTAFSLSSFCLMQFPIDLINEKTTGWYKNLMRTPLQSHQYYMAKVFKMMFQFILAILLIFIVAHFMKGVEMSTSDWLLSGLILWIGASTFLSVGVLISQINEIQKASSIGNILYLSLAILGGLWFPVSQFPEWMRKIAYVTPTYHLKQVAYEIGKGGTLDYLSLFVLVGYSILFLVVALIIQKRRDVDI”: the protein production entry is “failed”.

For “MIHGFLCSTKSALPHPLDDPAFVTASACRLASRPFRFMPQSSRRQNRSGTLVFANWNYVLLLIGVALIVVGFTAMYLEGQYLGFISLYVSPVLIIGGYAEIIYALLWAPDEQSAAEEQ”, the protein production result is “failed”.

Regarding “MYLLNDKVAHELKKPFGKVYKELPSIEGKVVSIGDVTTKHLLSNGIIPDLSILDFKTKRNIPVDIPHKFKTIFEVENPQGCISDEAIERIKYLSTIHDRDMALIIKGEEDLLTIPVIKYFPEDTSVIYGQPDEGMVLLKITDELKQKIEKLLKEMEER”, the protein production entry is on record as “failed”.
